Results published in patent US20250042963A1, “METHODS FOR TREATING MYELOPROLIFERATIVE DISORDERS” (Acceleron Pharma Inc., priority 2015, published 2025).
Blank lines part the entries; values can stand above or below the molecule they belong to.

Experiments:
[1] = tested on: myelofibrosis patients; conditions: anemic myelofibrosis patients; cited from earlier work
[2] = tested on: patients with a myeloproliferative disorder; conditions: cited from earlier work; for toxicity: patients with splenomegaly
[3] = target: T1, human TGFβ1 (Homo sapiens, UniProt P01137); assay: Reporter gene assay in A549 cells (pGL3(CAGA)12), inhibition of TGFβ1 activity; assay type: cell-based; conditions: for IC50: A549 reporter gene assay, hTGFβ1 640 pg/ml; for inhibition of TGFβ1 activity / signaling (in words): cell-based reporter assay
T1 construct: purchased PeproTech
T1 sequence (P01137 279-390 limits assumed): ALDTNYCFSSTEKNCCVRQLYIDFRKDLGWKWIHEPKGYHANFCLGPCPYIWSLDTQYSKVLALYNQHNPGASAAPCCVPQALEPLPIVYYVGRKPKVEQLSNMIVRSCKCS
Excerpt: (§1) A reporter gene assay in A549 cells was used to determine the ability of hTβRII-hFc variants to inhibit activity of TGFβ1, TGFβ2, and TGFβ3. This assay is based on a human lung carcinoma cell line transfected with a pGL3(CAGA)12 reporter plasmid (Dennler et al., 1998, EMBO 17: 3091-3100) as well as a Renilla reporter plasmid (pRLCMV) to control for transfection efficiency. The CAGA motif is present in the promoters of TGFβ-responsive genes (for example, PAI-1), so this vector is of general use for factors signaling through SMAD2 and SMAD3.
(§2) On the first day of the assay, A549 cells (ATCC®: CCL-185™) were distributed in 48-well plates at 6.5×10^4 cells per well. On the second day, a solution containing 10 μg pGL3(CAGA)12, 100 ng pRLCMV, 30 μl X-tremeGENE 9 (Roche Applied Science), and 970 μl OptiMEM (Invitrogen) was preincubated for 30 min, then added to Eagle's minimum essential medium (EMEM, ATCC®) supplemented with 0.1% BSA, which was applied to the plated cells (500 μl/well) for incubation overnight at […]. On the third day, medium was removed, and cells were incubated overnight at 37° C. with a mixture of ligands and inhibitors prepared as described below.
(§3) Serial dilutions of test articles were made in a 48-well plate in a 200 μl volume of assay buffer (EMEM+0.1% BSA). An equal volume of assay buffer containing the test ligand was added to obtain a final ligand concentration equal to the EC50 determined previously. Human TGFβ 1, human TGFβ2, and human TGFβ3 were obtained from PeproTech. Test solutions were incubated at 37° C. for 30 minutes, then 250 μl of the mixture was added to all wells. Each concentration of test article was determined in duplicate. After incubation with test solutions overnight, cells were rinsed with phosphate-buffered saline, then lysed with passive lysis buffer (Promega E1941) and stored overnight at −70° C. On the fourth and final day, plates were warmed to room temperature with gentle shaking. Cell lysates were transferred in duplicate to a chemiluminescence plate (96-well) and analyzed in a luminometer with reagents from a Dual-Luciferase Reporter Assay system (Promega E1980) to determine normalized luciferase activity.

[4] = target: T2, human TGFβ3 (Homo sapiens, UniProt P10600); assay: Reporter gene assay in A549 cells (pGL3(CAGA)12), inhibition of TGFβ3 activity; assay type: cell-based; conditions: for inhibition of TGFβ3 activity / signaling (in words): cell-based reporter assay; for IC50: A549 reporter gene assay, hTGFβ3 270 pg/ml
T2 construct: purchased PeproTech
T2 sequence (P10600 301-412 limits assumed): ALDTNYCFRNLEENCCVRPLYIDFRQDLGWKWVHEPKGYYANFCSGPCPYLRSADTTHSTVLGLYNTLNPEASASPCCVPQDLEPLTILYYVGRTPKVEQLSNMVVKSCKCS
Excerpt: as §1, with “efficiency.” for “efficiency. The CAGA motif is present in the promoters of TGFβ-responsive genes (for example, PAI-1), so this vector is of general use for factors signaling through SMAD2 and SMAD3.”
as §2
as §3, with “An equal volume of assay buffer containing the test ligand was added to obtain a final ligand concentration equal to the EC50 determined previously.” left out

[5] = target: T3, human TGFβ2 (Homo sapiens, UniProt P61812); assay: Reporter gene assay in A549 cells (pGL3(CAGA)12), inhibition of TGFβ2 activity; assay type: cell-based; conditions: Summary of Ligand Selectivity; cell names the ligand in this class
T3 construct: purchased PeproTech
T3 sequence (P61812 303-414 limits assumed): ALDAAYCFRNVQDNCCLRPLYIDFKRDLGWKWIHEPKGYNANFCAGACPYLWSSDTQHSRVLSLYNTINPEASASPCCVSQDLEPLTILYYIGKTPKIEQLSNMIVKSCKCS
Excerpt: as §1, §2, §3

[6] = third experiment (C-terminal truncation, N70D)
[7] = Summary of Ligand Selectivity, cell names the ligand in this class

Molecule: C#C[C@]1(O)CC[C@H]2[C@@H]3CCC4=Cc5oncc5C[C@]4(C)[C@H]3CC[C@@]21C [danazol]
response rate / responses in anemia (% of patients) [1]: around 20%

Molecule: Nc1nc(Cl)nc2c1ncn2[C@H]1C[C@H](O)[C@@H](CO)O1 [cladribine]
toxicity [2]: severe but reversible cytopenias
spleen responses / response rate ([2]; symptomatic splenomegaly): up to 50%

Molecule: NC(=O)NO [HC, Hydroxycarbamide]
patients with reductions in spleen size from 25%-50% ([2]; patients treated with HC): up to 35%
toxicity [2]: exacerbate cytopenias

B3: TβRIIshort(35-159)-G2Fc: N-terminally truncated (12 aa) short-isoform ECD fused to IgG2 Fc; SEQ ID NO: 33 (unprocessed), 57 (mature) (protein)
chain: DMIVTDNNGAVKFPQLCKFCDVRFSTCDNQKSCMSNCSITSICEKPQEVCVAVWRKNDENITLETVCHDPKLPYHDFILEDAASPKCIMKEKKKPGETFFMCSCSSDECNDNIIFSEEYNTSNPDTGGGVECPPCPAPPVAGPSVFLFPPKPKDTLMISRTPEVTCVVVDVSHEDPEVQFNWYVDGVEVHNAKTKPREEQFNSTFRVVSVLTVVHQDWLNGKEYKCKVSNKGLPAPIEKTISKTKGQPREPQVYTLPPSREEMTKNQVSLTCLVKGFYPSDIAVEWESNGQPENNYKTTPPMLDSDGSFFLYSKLTVDKSRWQQGNVFSCSVMHEALHNHYTQKSLSLSPGK
Degree of Ligand Inhibition: Moderate (ligand TGFβ1) [3, 7]: TGFβ1
inhibition of TGFβ1 activity / signaling (in words) [3]: maintains some TGFβ1 inhibitor effects
Degree of Ligand Inhibition: Negligible (ligand TGFβ3) [4, 7]: TGFβ3
inhibition of TGFβ3 activity / signaling (in words) [4]: greatly diminished ability to inhibit
Degree of Ligand Inhibition: Negligible (ligand TGFβ2) [5]: TGFβ2

B5: TβRIIshort(23-159/D110K)-G2Fc: full-length short-isoform ECD with D110K substitution fused to IgG2 Fc; SEQ ID NO: 25 (unprocessed), 53 (mature) (protein)
chain: TIPPHVQKSVNNDMIVTDNNGAVKFPQLCKFCDVRFSTCDNQKSCMSNCSITSICEKPQEVCVAVWRKNDENITLETVCHDPKLPYHKFILEDAASPKCIMKEKKKPGETFFMCSCSSDECNDNIIFSEEYNTSNPDTGGGVECPPCPAPPVAGPSVFLFPPKPKDTLMISRTPEVTCVVVDVSHEDPEVQFNWYVDGVEVHNAKTKPREEQFNSTFRVVSVLTVVHQDWLNGKEYKCKVSNKGLPAPIEKTISKTKGQPREPQVYTLPPSREEMTKNQVSLTCLVKGFYPSDIAVEWESNGQPENNYKTTPPMLDSDGSFFLYSKLTVDKSRWQQGNVFSCSVMHEALHNHYTQKSLSLSPGK
IC50 ([3]; first experiment (D110K)): > 73.6 nM
inhibition of TGFβ1 activity / signaling (in words) [3]: loss of inhibition
Degree of Ligand Inhibition: Moderate (ligand TGFβ3) [4, 7]: TGFβ3
inhibition of TGFβ3 activity / signaling (in words) [4]: intermediate inhibition
Degree of Ligand Inhibition: Negligible (ligand TGFβ2) [5]: TGFβ2

Continued, in another order:

IC50 [3, 6]: 17.7 nM
Degree of Ligand Inhibition: Potent (ligand TGFβ3) [4, 7]: TGFβ3
Degree of Ligand Inhibition: Negligible (ligand TGFβ2) [5]: TGFβ2
B1: TβRIIshort(23-153/N70D)-G2Fc: C-terminally truncated short-isoform ECD with N70D substitution fused to IgG2 Fc; SEQ ID NO: 41 (unprocessed), 61 (mature) (protein)
chain: TIPPHVQKSVNNDMIVTDNNGAVKFPQLCKFCDVRFSTCDNQKSCMSDCSITSICEKPQEVCVAVWRKNDENITLETVCHDPKLPYHDFILEDAASPKCIMKEKKKPGETFFMCSCSSDECNDNIIFSEEYTGGGVECPPCPAPPVAGPSVFLFPPKPKDTLMISRTPEVTCVVVDVSHEDPEVQFNWYVDGVEVHNAKTKPREEQFNSTFRVVSVLTVVHQDWLNGKEYKCKVSNKGLPAPIEKTISKTKGQPREPQVYTLPPSREEMTKNQVSLTCLVKGFYPSDIAVEWESNGQPENNYKTTPPMLDSDGSFFLYSKLTVDKSRWQQGNVFSCSVMHEALHNHYTQKSLSLSPGK
inhibition of TGFβ1 activity / signaling (in words) [3]: greatly diminished ability to inhibit TGFβ1
inhibition of TGFβ3 activity / signaling (in words) [4]: virtually undiminished ability to inhibit TGFβ3

IC50 [3, 6]: 2.62 nM
IC50 [4, 6]: 0.14 nM
B2: TβRIIshort(23-153)-G2Fc: C-terminally truncated (6 aa) short-isoform ECD fused to IgG2 Fc; SEQ ID NO: 37 (unprocessed), 59 (mature) (protein)
chain: TIPPHVQKSVNNDMIVTDNNGAVKFPQLCKFCDVRFSTCDNQKSCMSNCSITSICEKPQEVCVAVWRKNDENITLETVCHDPKLPYHDFILEDAASPKCIMKEKKKPGETFFMCSCSSDECNDNIIFSEEYTGGGVECPPCPAPPVAGPSVFLFPPKPKDTLMISRTPEVTCVVVDVSHEDPEVQFNWYVDGVEVHNAKTKPREEQFNSTFRVVSVLTVVHQDWLNGKEYKCKVSNKGLPAPIEKTISKTKGQPREPQVYTLPPSREEMTKNQVSLTCLVKGFYPSDIAVEWESNGQPENNYKTTPPMLDSDGSFFLYSKLTVDKSRWQQGNVFSCSVMHEALHNHYTQKSLSLSPGK

Degree of Ligand Inhibition: Moderate (ligand TGFβ1) [3, 7]: TGFβ1
inhibition of TGFβ1 activity / signaling (in words) [3]: maintains some TGFβ1 inhibitor effects
Degree of Ligand Inhibition: Negligible (ligand TGFβ3) [4, 7]: TGFβ3
inhibition of TGFβ3 activity / signaling (in words) [4]: greatly diminished ability to inhibit
Degree of Ligand Inhibition: Negligible (ligand TGFβ2) [5]: TGFβ2
B4: TβRIIshort(29-159)-G2Fc: N-terminally truncated (6 aa) short-isoform ECD fused to IgG2 Fc; SEQ ID NO: 29 (unprocessed), 55 (mature) (protein)
chain: QKSVNNDMIVTDNNGAVKFPQLCKFCDVRFSTCDNQKSCMSNCSITSICEKPQEVCVAVWRKNDENITLETVCHDPKLPYHDFILEDAASPKCIMKEKKKPGETFFMCSCSSDECNDNIIFSEEYNTSNPDTGGGVECPPCPAPPVAGPSVFLFPPKPKDTLMISRTPEVTCVVVDVSHEDPEVQFNWYVDGVEVHNAKTKPREEQFNSTFRVVSVLTVVHQDWLNGKEYKCKVSNKGLPAPIEKTISKTKGQPREPQVYTLPPSREEMTKNQVSLTCLVKGFYPSDIAVEWESNGQPENNYKTTPPMLDSDGSFFLYSKLTVDKSRWQQGNVFSCSVMHEALHNHYTQKSLSLSPGK

IC50 ([3]; first experiment (D110K)): 1.73 nM
Degree of Ligand Inhibition: Potent (ligand TGFβ1) [3, 7]: TGFβ1
IC50 ([4]; first experiment (D110K)): 0.14 nM
Degree of Ligand Inhibition: Potent (ligand TGFβ3) [4, 7]: TGFβ3
Degree of Ligand Inhibition: Negligible (ligand TGFβ2) [5]: TGFβ2
B6: TβRIIshort(23-159)-G2Fc: wild-type human TβRII short isoform ECD (23-159) fused to human IgG2 Fc; SEQ ID NO: 50, with TPA leader SEQ ID NO: 52 (protein)
chain: TIPPHVQKSVNNDMIVTDNNGAVKFPQLCKFCDVRFSTCDNQKSCMSNCSITSICEKPQEVCVAVWRKNDENITLETVCHDPKLPYHDFILEDAASPKCIMKEKKKPGETFFMCSCSSDECNDNIIFSEEYNTSNPDTGGGVECPPCPAPPVAGPSVFLFPPKPKDTLMISRTPEVTCVVVDVSHEDPEVQFNWYVDGVEVHNAKTKPREEQFNSTFRVVSVLTVVHQDWLNGKEYKCKVSNKGLPAPIEKTISKTKGQPREPQVYTLPPSREEMTKNQVSLTCLVKGFYPSDIAVEWESNGQPENNYKTTPPMLDSDGSFFLYSKLTVDKSRWQQGNVFSCSVMHEALHNHYTQKSLSLSPGK
